According to article PMC5554461:

Molecular target: soluble 2-domain CD4 (2dCD4)
Assay: BLI

Substance: YU2(R456K).SOSIP.664 (from UniProt P35961 499-843) (complex)
- fold reduction of the on-rate against YU2.SOSIP.664: 2 fold
